Measurements: US8580254B2, “Anti-IGF antibodies” (Boehringer Ingelheim International GmbH, priority 2007, dated 2013)

Columns and labels:
[1] = tested on: COLO 205 tumour cells xenografted into nude mice; experiment: In vivo COLO 205 xenograft study; parameters: species or system athymic NMRI nude mice; settings: 50 mg/kg 5FU alone, once weekly, FIG. 7
Experimental: Female athymic NMRI nude mice, 6-8 weeks old, are inoculated subcutaneously in the right flank with the COLO 205 human colon tumour-derived cell line (ATCC #CCL-222) (5×10^6 in 100 μl Ringer solution). Tumour cell growth is assessed by measuring tumour volume three times per week using calipers and the formula: π/6× larger diameter×(smaller diameter)^2. Treatment is administered intravenously to groups of ten mice and commenced when tumours have developed to a size of between 130 to 270 mm^3. The treatment schedule consists of two times weekly intravenous infusions of vehicle and antibody 40186 at a dose of 25 mg/kg for two treatment cycles. In combinations of antibody with 5FU, a dose of 50 mg/kg 5FU is administered weekly. The study is terminated when tumours reached an average size of 1500 mm^3. All animal experiments are performed according to the legal requirements in Austria as well as guidelines of the American Association for Laboratory Animal Science (AALAS).

[2] = cynomolgus monkeys; cited from earlier work
[3] = humans; cited from earlier work
[4] = biological target: T1, human IGF-1 (Homo sapiens, UniProt P05019); experiment: ELISA binding titration of IgG1 antibodies; settings: FIG. 1A
T1 construct: Insulin-like growth factor-1 (IGF-1; a 70 amino-acid polypeptide)
Experimental: (§1) ELISA screening for IGF-1 positive Fab clones is performed by coating Maxisorb 384-well plates overnight at 4° C. with 5 μg/ml recombinant human IGF-1 (Gropep) in 1× coating buffer (Gibco). Wells are washed with 1×TBS-T and blocked with 1× Blocking Buffer (Gibco) for 1 h at room temperature. Bacterial lysates containing antibody Fab fragments are added for 1.5 hr at room temperature, then washed five times with 1×TBS-T and detected with Alkaline Phosphatase-conjugated Affini Pure Goat Anti-HumanIgG F(ab′)2. Fragment Specific Mab (Dianova) at a dilution of 1:10 000 and visualized with Attophos Substrate (Roche). Fluorescence readings are performed on Tecan fluorescence reader at excitation 430 nm and emission 535 nm.
(§2) Cross-reactivity to recombinant human IGF-1, murine IGF-1, murine IGF-2 (R&D Systems), recombinant human IGF-2, rat IGF-1, rat IGF-2 (Gropep) and recombinant human insulin (Roche) is performed by ELISA using the same procedure as above, but with a 1 μg/ml coating dilution.

[5] = biological target: T2, human IGF-2 (Homo sapiens, UniProt P01344); experiment: ELISA binding titration of IgG1 antibodies; settings: FIG. 1B
T2 construct: insulin-like growth factor-2 (IGF-2; a 67 amino-acid polypeptide)
Experimental: as §1, §2

[6] = biological target: T3, murine IGF-1 (Mus musculus, UniProt P05017); experiment: ELISA binding titration of IgG1 antibodies; settings: FIG. 1C
T3 construct: Insulin-like growth factor-1 (IGF-1; a 70 amino-acid polypeptide); purchased R&D Systems
Experimental: as §1, §2

[7] = biological target: T4, murine IGF-2 (Mus musculus, UniProt P09535); experiment: ELISA binding titration of IgG1 antibodies; settings: FIG. 1D
T4 construct: insulin-like growth factor-2 (IGF-2; a 67 amino-acid polypeptide); purchased R&D Systems
Experimental: as §1, §2

[8] = biological target: T5, rat IGF-1 (Rattus norvegicus, UniProt P08025); experiment: ELISA binding titration of IgG1 antibodies; settings: FIG. 1E
T5 construct: Insulin-like growth factor-1 (IGF-1; a 70 amino-acid polypeptide)
Experimental: as §1, §2

[9] = biological target: T6, rat IGF-2 (Rattus norvegicus, UniProt P01346); experiment: ELISA binding titration of IgG1 antibodies; settings: FIG. 1F
T6 construct: insulin-like growth factor-2 (IGF-2; a 67 amino-acid polypeptide)
Experimental: as §1, §2

[10] = biological target: T7, biotinylated-IGF-1 binding to coated insulin-like growth factor-1 receptor (Homo sapiens, UniProt P05019); experiment: ELISA neutralization of biotinylated IGF-1 binding to coated IGF-1R
T7 construct: Insulin-like growth factor-1 (IGF-1; a 70 amino-acid polypeptide); purchased R&D Systems (IGF-1R)
Experimental: To identify IGF antibodies that neutralize the ability of IGF-1 and IGF-2 to bind to the IGF-1R, an ELISA is established by coating plates with 1.5 μg/ml recombinant human IGF-1R (R&D Systems) which allows the binding of biotinylated IGF-1 and biotinylated IGF-2. Bound IGF-1 or IGF-2 is detected using alkaline phosphatase-conjugated streptavidin (1:10,000 dilution) (Roche). The neutralization potency of antibody Fab fragments is measured by adding 0.1-1 μg/ml of Fab to the wells coated with IGF-1R just prior to the addition of biotinylated IGF-1 or IGF-2 ligands. Antibody Fab fragments that block the binding of biotinylated ligand are identified by a reduction in fluorometric signal.

[11] = tested on: IGF-1 stimulated COLO 205 cell growth; experiment: COLO 205 cell growth assay (CellTiter-Glo); assay type: cell-based, human; settings: 10 ng/ml IGF-1; antibody 5 and 30 μg/ml; 5 days; FIG. 3A
Experimental: (§3) The COLO 205 colon cancer-derived cell line (ATCC # CCL-222) is plated in 96-well plates at a cell density of 1000 cells per well in serum-free RPMI medium. 10 ng/ml of either IGF-1 or IGF-2 is added in the presence or absence of a control antibody or antibodies 40183 and 40186 at concentrations of 5 and 30 μg/ml. Cells are cultured for 5 days then the cell number in each well determined using the CellTiter-Glo luminescent cell viability assay (Promega). Luminescence was recorded using a XFluor GENios Pro 4.

[12] = tested on: IGF-2 stimulated COLO 205 cell growth; experiment: COLO 205 cell growth assay (CellTiter-Glo); assay type: cell-based, human; settings: 10 ng/ml IGF-2; antibody 5 and 30 μg/ml; 5 days; FIG. 3B
Experimental: as §3

[13] = tested on: insulin stimulated COLO 205 cell growth; experiment: COLO 205 cell growth assay (CellTiter-Glo); assay type: cell-based, human; settings: FIG. 3C

T5 sequence (P08025 49-118 limits assumed): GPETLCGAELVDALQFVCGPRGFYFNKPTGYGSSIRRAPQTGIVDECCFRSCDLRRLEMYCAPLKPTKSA
T6 sequence (P01346 25-91 limits assumed): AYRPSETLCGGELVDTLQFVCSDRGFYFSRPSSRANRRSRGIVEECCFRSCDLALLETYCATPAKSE

O=c1[nH]cc(F)c(=O)[nH]1 [5FU, 5-fluorouracil, reference compound]
decrease in median tumour growth [1]: 30%

bevacizumab
terminal half-life [2]: 8.57 ± 0.38 days
terminal half life [3]: approximately 20 days

B1: antibody 40183: fully human IgG1/Igλ anti-IGF antibody; variable heavy SEQ ID NO:18, variable light SEQ ID NO:20; constant regions as 40186 (antibody, listed as Homo sapiens, V domains shown)
VH: QVELVESGGGLVQPGGSLRLSCAASGFTWSSFAMSWVRQAPGKGLEWVSYISYLGSYTGYADSVKGRFTISRDNSKNTLYLQMNSLRAEDTAVYYCARGTKFDYWGQGTLVTVSS
VL: DIVLTQPPSVSGAPGQRVTISCTGSSSNIGTYDVHWYQQLPGTAPKLLIYSNSKRPSGVPDRFSGSKSGTSASLAITGLQSEDEADYYCSITRVFGGGTKLTVLG
modifications: IgG1/lambda constant regions
notes: fully human IgG1/Igλ anti-IGF antibody; constant regions as 40186
binding to human IGF-1 (ELISA) [4]: concentration dependent binding
binding to human IGF-2 (ELISA) [5]: concentration dependent binding
binding to murine IGF-1 (ELISA) [6]: concentration dependent binding
binding to murine IGF-2 (ELISA) [7]: concentration dependent binding
binding to rat IGF-1 (ELISA) [8]: concentration dependent binding
binding to rat IGF-2 (ELISA) [9]: concentration dependent binding
IC50, inhibition of IGF-1 ligand binding to IGF-1R ([10]; FIG. 2): approximately 5 ng/ml
IC50 ([10]; FIG. 2, read-out: IC50, inhibition of IGF-1 ligand binding to IGF-1R): ~0.03 nM
effect on IGF-1 induced COLO 205 cell growth [11]: dose dependent inhibition
effect on IGF-2 induced COLO 205 cell growth [12]: dose dependent inhibition
effect on insulin induced COLO 205 cell growth [13]: no effect
